Assay results from paper PMC9230395.
pKd: −log10 of the molar value.

Biological target: T1, ZBP1 (recombinant Z-DNA-binding protein) (UniProt Q9H171)
T1 sequence: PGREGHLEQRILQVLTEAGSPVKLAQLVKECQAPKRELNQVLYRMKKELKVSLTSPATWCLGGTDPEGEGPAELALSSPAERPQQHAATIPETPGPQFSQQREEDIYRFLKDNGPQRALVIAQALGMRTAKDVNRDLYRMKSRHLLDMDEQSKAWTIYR
Experiment: BLI
Settings: 10 mM MgCl2; kon 8.28e3 M-1 s-1, koff 4.68e-6 s-1; strands 1 and 2 circular; BLI: 1x PBS (10 mM phosphate) pH 7.2, 10 mM MgCl2, 0.1% BSA, 0.02% Tween-20, 25 C; EMSA: 10 mM phosphate pH 7.2, 10 mM MgCl2, 0.25 uM DNA, 6% PAGE (cc-91A) …

CGTGTGATATAGGTGAACGCGCGTGTGTGTATATGTGTGCGATCGTAGAACTTGTGAACCCTTATACCATGCACGATCGCACATTTCGCACA / GCACACATATACACACACGCGCGTTCACCTATATCACACGTGACTTGTAATTAGTAACTACCAACGTGCGTGTGTGTCAGTCAGCGAAATGTGCGATCGTGCATGGTATAAGGGTTCACAAGTTCTACGATC / TTTTTACCTCACTATACTTACATGTTTTTTGGTAGTTACTAATTACAAGT [Bait-cc-91A (cc-91A + lB50)]
pKd: 9.25
